Measurements as given in US20170369552A1.

What was measured:
[1] = biological target: VEGF165, a splice variant of VEGF-A (UniProt P15692); assay: cell-based or functional assay
[2] = biological target: VEGF165, a splice variant of VEGF-A (UniProt P15692); assay: direct binding ELISA; VEGF165 coated, anti-human IgG Fc-HRP detection
[3] = biological target: VEGF165, a splice variant of VEGF-A (UniProt P15692); assay: competitive binding in solution; 5 pM VEGF165 overnight, free VEGF165 by Quantikine sandwich ELISA

Sequence of VEGF165, a splice variant of VEGF-A (P15692 other isoform, or with tags, fused parts or gaps mutant): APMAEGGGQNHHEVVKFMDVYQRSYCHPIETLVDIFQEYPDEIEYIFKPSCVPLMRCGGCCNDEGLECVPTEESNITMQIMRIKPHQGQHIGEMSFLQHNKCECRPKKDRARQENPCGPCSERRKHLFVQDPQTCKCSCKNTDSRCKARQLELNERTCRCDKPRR

inhibition of VEGF-dependent HUVEC proliferation, IC50 [1]: 0.068 nM
EC50 [2]: 0.087 nM
IC50 [3]: 0.00517 nM
Substance: Positive Control 1 (synthesized VEGF Trap) (from UniProt P17948 129-230; P35968 225-327) (Fc fusion)
